Results published in paper PMC4831024 (2016).
Ends that are not written are not given here.

These binders were tested against Ku70/Ku80ΔC heterodimer (human, UniProt P12956 1-609; P13010 1-590) (assay: FP).
Chain of Ku70/Ku80ΔC heterodimer (P12956 whole entry, stated change not applied, chain 1 of 2): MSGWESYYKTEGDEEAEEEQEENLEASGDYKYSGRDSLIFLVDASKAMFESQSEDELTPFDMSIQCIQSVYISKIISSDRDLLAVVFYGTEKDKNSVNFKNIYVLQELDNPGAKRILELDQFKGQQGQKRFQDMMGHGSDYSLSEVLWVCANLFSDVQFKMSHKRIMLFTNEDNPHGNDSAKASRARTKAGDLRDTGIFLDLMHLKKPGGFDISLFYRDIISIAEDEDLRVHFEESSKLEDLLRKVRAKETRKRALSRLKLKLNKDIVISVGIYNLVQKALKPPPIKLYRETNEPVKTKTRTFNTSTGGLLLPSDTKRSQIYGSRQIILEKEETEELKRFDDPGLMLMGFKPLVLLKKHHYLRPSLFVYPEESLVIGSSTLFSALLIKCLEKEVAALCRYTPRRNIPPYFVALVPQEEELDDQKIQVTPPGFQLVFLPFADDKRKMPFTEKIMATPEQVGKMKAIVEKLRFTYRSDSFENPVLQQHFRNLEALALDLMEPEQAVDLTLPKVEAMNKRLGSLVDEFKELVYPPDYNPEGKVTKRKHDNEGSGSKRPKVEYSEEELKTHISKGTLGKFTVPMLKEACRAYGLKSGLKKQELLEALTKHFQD
Chain of Ku70/Ku80ΔC heterodimer (P13010 1-590, stated change not applied, chain 2 of 2): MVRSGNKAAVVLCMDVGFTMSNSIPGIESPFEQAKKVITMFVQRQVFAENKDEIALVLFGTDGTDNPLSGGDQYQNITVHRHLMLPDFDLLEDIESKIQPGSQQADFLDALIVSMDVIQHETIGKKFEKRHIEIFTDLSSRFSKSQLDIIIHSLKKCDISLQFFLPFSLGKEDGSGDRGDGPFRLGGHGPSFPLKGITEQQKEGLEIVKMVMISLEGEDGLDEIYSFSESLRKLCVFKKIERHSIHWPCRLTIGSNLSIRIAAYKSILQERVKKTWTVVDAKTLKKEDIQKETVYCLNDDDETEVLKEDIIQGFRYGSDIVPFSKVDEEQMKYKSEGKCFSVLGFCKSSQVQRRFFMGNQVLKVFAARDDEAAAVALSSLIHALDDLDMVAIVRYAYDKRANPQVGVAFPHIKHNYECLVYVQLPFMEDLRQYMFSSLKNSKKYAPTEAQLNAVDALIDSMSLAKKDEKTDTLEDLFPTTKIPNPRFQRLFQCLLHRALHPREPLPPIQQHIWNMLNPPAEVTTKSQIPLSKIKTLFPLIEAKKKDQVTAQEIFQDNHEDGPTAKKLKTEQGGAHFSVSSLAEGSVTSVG
Work on Fluorescein-GGYGSSAERKRRLPVWFAKG [fluorescein-labelled WRN-cA peptide (C-terminal KBM of WRN)] yielded a Kd of 790 nM.
Binder Fluorescein-GGYGSSAERKRRLPVWFAKGSDTSKKLMDKTKRGGLFS [fluorescein-labelled WRN-cAX peptide (C-terminal KBM plus XLF-like motif of WRN)] has a Kd of 720 nM.
Binder Fluorescein-GGYGAQQRKCPEWMNVQN [fluorescein-labelled WRN-nA peptide (N-terminal KBM of WRN)] has a Kd of 1170 nM.
